From patent publication US20260071002A1 (Hoffmann-La Roche, published 2026)
Where a chain is given by its changes, count along the chain named. Like-named read-outs stand apart in the source and are kept apart here. Values belong to the binder of their own block, whether it stands above or below them.

Legend:
human CEACAM5 [1] = biological target: T1, human CEACAM5 (human, UniProt P06731 35-685); experiment: FACS on MKN-45 cells expressing human CEACAM5
T1 construct: whole, on cells; Target on MKN-45 (DSMZ ACC409) and LS180 (ATCC CL-187) cells; also called carcinoembryonic antigen-related cell adhesion molecule 5; CD66e
T1 sequence (looked up): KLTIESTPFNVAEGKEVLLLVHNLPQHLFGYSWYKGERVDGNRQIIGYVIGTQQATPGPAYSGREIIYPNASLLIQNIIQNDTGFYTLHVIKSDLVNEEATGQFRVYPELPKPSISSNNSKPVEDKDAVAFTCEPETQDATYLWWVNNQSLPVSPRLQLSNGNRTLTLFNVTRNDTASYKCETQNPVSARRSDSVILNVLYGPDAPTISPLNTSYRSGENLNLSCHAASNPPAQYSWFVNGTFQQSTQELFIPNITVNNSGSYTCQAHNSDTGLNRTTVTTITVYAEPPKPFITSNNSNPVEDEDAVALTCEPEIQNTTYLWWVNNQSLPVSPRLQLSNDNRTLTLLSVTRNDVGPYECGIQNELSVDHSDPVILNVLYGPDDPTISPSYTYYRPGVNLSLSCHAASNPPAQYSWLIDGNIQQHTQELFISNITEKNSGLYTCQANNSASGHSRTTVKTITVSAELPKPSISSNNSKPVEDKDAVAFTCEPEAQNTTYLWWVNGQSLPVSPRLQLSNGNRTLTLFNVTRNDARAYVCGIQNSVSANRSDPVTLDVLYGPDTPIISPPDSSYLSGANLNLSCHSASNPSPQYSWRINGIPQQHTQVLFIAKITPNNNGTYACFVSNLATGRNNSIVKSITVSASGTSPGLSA
Procedure: The cellular binding assay was performed as follows.
(§1) 10 μl of a 1×10⁴ MKN-45 (DSMZ ACC409) cell suspension in assay buffer was seeded in all Wells of a 384 well polypropylene plate (Weidmann #23490-101). Then 10 μl of antibodies diluted in assay buffer (double concentrated), at a start concentration of 100 μg/ml, serially diluted 1:4 were added to the plate. After 90 minutes incubation at 4° C., 60 μl assay buffer was added followed by a centrifuge step (330×g, 5 min) and an aspirating step (BioTek washer 405H) where 60 μl of supernatant were discarded. 20 μl of detection antibody (Alpaca anti rabbit IgG Chromotek #srbAF647-1) diluted in assay buffer (double concentrated) to a final concentration of 0.5 μg/ml was added to all Wells followed by 1 hour incubation time at room temperature. The cells were then subjected to two washing steps with 40 μl and 60 μl assay buffer as described above and then resuspended in 20 μl assay buffer. Cell binding was measured on an iQue Screener Plus high throughput FACS device from Sartorius/Intellicyt.

human CEACAM5 [2] = biological target: T1, human CEACAM5; experiment: FACS on MKN-45 cells expressing human CEACAM5; remark: listed apart in the source
Procedure: as §1

B1: T84.66-LCHA (P1AH2338) (antibody, V domains shown)
VH: QVQLVQSGAEVKKPGSSVKVSCKASGFNIKDTYMHWVRQAPGQGLEWMGRIDPANGNSKYVPKFQGRVTITADTSTSTAYMELSSLRSEDTAVYYCAPFGYYVSDYAMAYWGQGTLVTVSS
VL: EIVLTQSPATLSLSPGERATLSCRAGESVDIFGVGFLHWYQQKPGQAPRLLIYRASNRATGIPARFSGSGSGTDFTLTISSLEPEDFAVYYCQQTNEDPYTFGQGTKLEIK
notes: also called humanized variant 1
EC50 (human CEACAM5 [1]): 5.3 nM
EC50 (human CEACAM5 [2]): 0.989 µg/mL

B2: P1AH2368 (antibody, V domains shown)
VH: B1 VH
VL: B1 VL with I31S, F32Y
EC50 (human CEACAM5 [1]): 2.5 nM

B3: P1AH2349 (antibody, human IgG1, V domains shown)
VH: EVQLVESGGGLVQPGGSLRLSCAASGFNIKDTYMHWVRQAPGKGLEWVGRIDPANGNSKYADSVKGRFTISADTSKNTAYLQMNSLRAEDTAVYYCAPFGYYVSDYAMAYWGQGTTVTVSS
VL: B1 VL
notes: also called rehumanized improved expression variant
EC50 (human CEACAM5 [1]): 7.2 nM
EC50 (human CEACAM5 [2]): 1.11 µg/mL

B4: P1AH2369 (antibody, V domains shown)
VH: B1 VH
VL: B1 VL with V34N, G35S
EC50 (human CEACAM5 [1]): 5.5 nM

B8: P1AH2361 (antibody, human IgG1, name in Kabat numbering, V domains shown)
VH: B1 VH with K30T
VL: B1 VL
EC50 (human CEACAM5 [1]): 21.9 nM

B9: P1AH2350 (antibody, name in Kabat numbering, V domains shown)
VH: B1 VH with P98V
VL: B1 VL
EC50 (human CEACAM5 [1]): 30.1 nM

B10: P1AH2354 (antibody, human IgG1, name in Kabat numbering, V domains shown)
VH: B1 VH with P98S
VL: B1 VL
notes: Kabat positions
EC50 (human CEACAM5 [1]): 20.4 nM

B11: P1AH2357 (antibody, name in Kabat numbering, V domains shown)
VH: B1 VH with D31S
VL: B1 VL
EC50 (human CEACAM5 [1]): 2.3 nM

B17: P1AH2352 (antibody, human IgG1, name in Kabat numbering, V domains shown)
VH: B1 VH with P98T
VL: B1 VL
notes: Kabat positions
EC50 (human CEACAM5 [1]): 21.9 nM

B18: P1AH2359 (antibody, human IgG1, name in Kabat numbering, V domains shown)
VH: B1 VH with E82Q
VL: B1 VL
EC50 (human CEACAM5 [1]): 12.9 nM

B20: P1AH2373 (antibody, human IgG1, name in Kabat numbering, V domains shown)
VH: B1 VH
VL: B1 VL with D98N
EC50 (human CEACAM5 [1]): 2.5 nM

B21: P1AH2366 (antibody, human IgG1, name in Kabat numbering, V domains shown)
VH: B1 VH
VL: B1 VL with F32Y
notes: Kabat positions
EC50 (human CEACAM5 [1]): 2.7 nM

B22: P1AH2351 (antibody, human IgG1, name in Kabat numbering, V domains shown)
VH: B1 VH with P98A
VL: B1 VL
notes: Kabat positions
EC50 (human CEACAM5 [1]): 39.1 nM

B24: P1AH2364 (antibody, human IgG1, name in Kabat numbering, V domains shown)
VH: B1 VH
VL: B1 VL with A55G
EC50 (human CEACAM5 [1]): 1.9 nM

B26: P1AH2370 (antibody, human IgG1, name in Kabat numbering, V domains shown)
VH: B1 VH
VL: B1 VL with D30S
EC50 (human CEACAM5 [1]): 3.1 nM

The next lines start with the values.

EC50 (human CEACAM5 [2]): 11.5 µg/mL
B5: P1AI5024 (antibody, human IgG1, name in Kabat numbering, V domains shown)
VH: B3 VH
VL: B1 VL with A55G, Q93G, N96Y

EC50 (human CEACAM5 [2]): 1.53 µg/mL
B6: P1AI5032 (antibody, human IgG1, name in Kabat numbering, V domains shown)
VH: B3 VH
VL: B1 VL with I31H, A55G
notes: Double mutant of T84.66-LCHA VL

EC50 (human CEACAM5 [2]): 1.83 µg/mL
B7: P1AI5026 (antibody, human IgG1, name in Kabat numbering, V domains shown)
VH: B3 VH
VL: B1 VL with A55G, Q93G, N96T

EC50 (human CEACAM5 [2]): 7.51 µg/mL
B12: P1AI5028 (antibody, human IgG1, name in Kabat numbering, V domains shown)
VH: B3 VH
VL: B1 VL with A55G, Q93G, N96H

EC50 (human CEACAM5 [2]): 2.49 µg/mL
B13: P1AI5019 (antibody, human IgG1, name in Kabat numbering, V domains shown)
VH: B3 VH
VL: B1 VL with A55G, Q93G, P99Y

EC50 (human CEACAM5 [2]): 7.21 µg/mL
B14: P1AI5023 (antibody, human IgG1, name in Kabat numbering, V domains shown)
VH: B3 VH
VL: B1 VL with A55G, Q93G, D98H

EC50 (human CEACAM5 [2]): 0.685 µg/mL
B15: P1AI5013 (antibody, human IgG1, V domains shown)
VH: B3 VH
VL: B1 VL with I31H

EC50 (human CEACAM5 [2]): 25.1 µg/mL
B16: P1AI5027 (antibody, human IgG1, name in Kabat numbering, V domains shown)
VH: B3 VH
VL: B1 VL with A55G, Q93G, N96Q

EC50 (human CEACAM5 [2]): 1.92 µg/mL
B19: P1AI5029 (antibody, human IgG1, name in Kabat numbering, V domains shown)
VH: B3 VH
VL: B1 VL with A55G, Q93G, N96K

EC50 (human CEACAM5 [2]): 2.44 µg/mL
B23: P1AI5025 (antibody, human IgG1, name in Kabat numbering, V domains shown)
VH: B3 VH
VL: B1 VL with A55G, Q93G, N96S

EC50 (human CEACAM5 [2]): 11.2 µg/mL
B25: P1AI5030 (antibody, human IgG1, name in Kabat numbering, V domains shown)
VH: B3 VH
VL: B1 VL with A55G, V89Y, Q93G

EC50 (human CEACAM5 [2]): 1.62 µg/mL
B27: P1AI5021 (antibody, human IgG1, name in Kabat numbering, V domains shown)
VH: B3 VH
VL: B1 VL with A55G, Q93G, D98P
